Experimental data: patent US20240181068A1, “SELECTIVE NEUTRAL PH INHIBITOR OF CATHEPSIN B” (The Regents of the University of California, priority 2021, published 2024)
Peptide text beside a SMILES is read from it. * marks the point of attachment. AOMK = acyloxymethyl ketone warhead replacing the C-terminal carboxyl; AMC = Cc1cc(=O)oc2cc(N*)ccc12; Cbz = O=C(OCc1ccccc1)*

Tests used:
[1] = biological target: Recombinant human cathepsin B (R&D #953-CY-010) (human) (UniProt P07858); assay: cell-based or functional assay
[2] = biological target: Recombinant human cathepsin B (R&D #953-CY-010) (human) (UniProt P07858); assay: inactivation kinetics, fluorogenic cathepsin B assay with Z-Phe-Arg-AMC, pH 4.6
[3] = biological target: Recombinant human cathepsin B (R&D #953-CY-010) (human) (UniProt P07858); assay: ratio of KI values, fluorogenic cathepsin B assay
[4] = biological target: Recombinant human cathepsin B (R&D #953-CY-010) (human) (UniProt P07858); assay: inactivation kinetics, fluorogenic cathepsin B assay with Z-Phe-Arg-AMC, pH 7.2
cathepsin B = biological target: T1, cathepsin B (Homo sapiens, UniProt P07858); assay: pH profile of cathepsin B activity with peptide-AMC substrates; format: biochemical; conditions: substrate 60 μM
T1 construct: purchased R&D Systems 953-CY-010
Protocol: Cathepsin B activity assayed by fluorogenic peptide substrates. Proteolytic assays of cathepsin B were conducted with Z-Arg-Lys-AMC and Z-Gly-Lys-AMC substrates in 50 mM citrate phosphate at pH 7.2 or pH 4.6, 1 mM EDTA, 100 mM NaCl, and 5 mM DTT. Assays with Z-Phe-Arg-AMC substrate were conducted under identical conditions and included 0.01% Tween20. Assays were performed in 384 well plates at 25° C. in a total volume of 30 μL. Fluorescence was quantified by a Biotek Synergy HTX microplate plate reader with excitation 360 nm, emission 460 nm, gain 50, top optics and read height 1 mm. Proteolytic activity is reported as relative fluorescent units per sec (RFU/sec), and was calculated using the highest slope recorded for 10 consecutive readings. Fluorescent readings were taken in 46 sec intervals and therefore activity is calculated over a total of 460 sec. To ensure that initial velocity is assessed, only readings within the first 30 minutes of the reaction were analyzed. RFU/sec readings were converted to enzyme specific activity of pmol/min/μg using the conversion factor of 1227 RFU per μM AMC.
To generate the pH profile of cathepsin B activity with the substrates Z-Arg-Lys-AMC, Z-Glu-Lys-AMC, and Z-Phe-Arg-AMC, 60 μM of each substrate and 0.04 ng/ul of cathepsin B were assayed in citrate phosphate buffers ranging from pH 2.2 to 7.4 in increments of 0.4 pH units, including pH 7.2. […]

cathepsin L = biological target: T2, cathepsin L (Homo sapiens, UniProt P07711); assay: Specificity of peptide-AMC substrates: cathepsin L; format: biochemical
T2 construct: purchased R&D Systems 952-CY-010

cathepsin V = biological target: T3, cathepsin V (Homo sapiens, UniProt O60911); assay: Specificity of peptide-AMC substrates: cathepsin V; format: biochemical
T3 construct: purchased R&D Systems 1080-CY-010

[5] = biological target: T4, cathepsin B in human neuroblastoma cells (SHSY5Y) (Homo sapiens, UniProt P07858); assay: Neuroblastoma cells incubated with inhibitors, then cathepsin B assay; format: cell-based; conditions: cells incubated with 50 μM inhibitor for 6 hrs, washed, homogenate assayed with Z-Arg-Arg-AMC
T4 construct: endogenous in cells; host or cells: SH-SY5Y human neuroblastoma cells
Protocol: Cathepsin B in human neuroblastoma cells treated with inhibitors. Neuroblastoma cells (human SHSY5Y) were grown in media consisting of 50% MEMalpha, 50% F12-K, 10% heat-inactivated FBS at 37° C. in an atmosphere of 95% air and 5% CO2. Firstly, cell homogenates were prepared by collection of cells in 0.32 M sucrose and freeze-thawing. Secondly, cells were incubated with Z-Arg-Lys-AOMK or CA-074Me for 6 hours at 37° C., and washed 3 times in phosphate-buffered saline and homogenates were prepared in 0.32 M sucrose with freeze-thawing. CA-074Me is a methyl ester form of the active CA-074 selective inhibitor of cathepsin B (70); CA-074Me penetrates the cell and is converted by intracellular esterases to CA-074.
Cathepsin B activity in the homogenates were monitored with Z-Arg-Arg-AMC substrate (60 μM) with buffer conditions of 40 mM citrate-phosphate, pH 5.5, 5 mM DTT, 1 mM EDTA, 100 mM NaCl, and 1.2% DMSO, followed by incubation at 37° C. for 30 minutes and reading of AMC fluorescence. CA-074-senstive activity was monitored to indicate cathepsin B activity, since CA-074 is a selective inhibitor of this enzyme (70). Protein content was measured in homogenates with the DC protein assay kit. Cathepsin B specific activity was calculated as nmol AMC/μg/min, and reported as the mean±SD (with analyses for statistical significance, p<0.05 by student's t-test).

[6] = biological target: T5, cathepsin K (Abcam #ab157067) (human, UniProt P43235 115-329, limits assumed); assay: cell-based or functional assay
T5 sequence (looked up): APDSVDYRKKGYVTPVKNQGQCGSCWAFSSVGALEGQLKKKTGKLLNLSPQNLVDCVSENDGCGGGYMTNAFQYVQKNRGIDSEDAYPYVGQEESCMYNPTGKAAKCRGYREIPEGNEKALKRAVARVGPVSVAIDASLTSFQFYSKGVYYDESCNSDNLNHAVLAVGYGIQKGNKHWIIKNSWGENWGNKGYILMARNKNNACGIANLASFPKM

[7] = biological target: cathepsin S (R&D #1183-CY-010) (human, UniProt P25774 17-331); assay: cell-based or functional assay
[8] = biological target: T6, cathepsin V (R&D #1080-CY-010) (human, UniProt O60911 18-334); assay: cell-based or functional assay
T6 sequence (looked up): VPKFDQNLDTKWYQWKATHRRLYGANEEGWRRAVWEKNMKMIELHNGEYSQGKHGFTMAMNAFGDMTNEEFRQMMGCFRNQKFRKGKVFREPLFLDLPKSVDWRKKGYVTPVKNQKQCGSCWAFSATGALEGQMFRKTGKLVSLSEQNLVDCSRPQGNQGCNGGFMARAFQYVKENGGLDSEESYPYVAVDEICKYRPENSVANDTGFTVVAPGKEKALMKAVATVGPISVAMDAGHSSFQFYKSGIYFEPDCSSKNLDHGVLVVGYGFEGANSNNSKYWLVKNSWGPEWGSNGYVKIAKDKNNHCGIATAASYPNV

[9] = biological target: cathepsin L (R&D #952-CY-010) (human, UniProt P07711 114-333); assay: cell-based or functional assay
[10] = biological target: cathepsin C (R&D #1071-CY-010) (human, UniProt P53634 25-463); assay: cell-based or functional assay
cathepsin X = cathepsin X (UniProt Q9UBR2 24-303, limits assumed); assay: cell-based or functional assay
[11] = biological target: T7, cathepsin H (R&D #75116-CY-010) (human, UniProt P09668 116-335); assay: cell-based or functional assay
T7 sequence (looked up): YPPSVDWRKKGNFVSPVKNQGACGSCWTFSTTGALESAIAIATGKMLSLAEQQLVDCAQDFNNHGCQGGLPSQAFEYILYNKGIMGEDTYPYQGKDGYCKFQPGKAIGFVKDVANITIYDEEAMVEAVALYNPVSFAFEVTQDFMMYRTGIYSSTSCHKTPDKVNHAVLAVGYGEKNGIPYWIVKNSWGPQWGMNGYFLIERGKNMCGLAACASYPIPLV

cathepsin C (R&D #1071-CY-010), sequence (P53634 25-463 limits assumed): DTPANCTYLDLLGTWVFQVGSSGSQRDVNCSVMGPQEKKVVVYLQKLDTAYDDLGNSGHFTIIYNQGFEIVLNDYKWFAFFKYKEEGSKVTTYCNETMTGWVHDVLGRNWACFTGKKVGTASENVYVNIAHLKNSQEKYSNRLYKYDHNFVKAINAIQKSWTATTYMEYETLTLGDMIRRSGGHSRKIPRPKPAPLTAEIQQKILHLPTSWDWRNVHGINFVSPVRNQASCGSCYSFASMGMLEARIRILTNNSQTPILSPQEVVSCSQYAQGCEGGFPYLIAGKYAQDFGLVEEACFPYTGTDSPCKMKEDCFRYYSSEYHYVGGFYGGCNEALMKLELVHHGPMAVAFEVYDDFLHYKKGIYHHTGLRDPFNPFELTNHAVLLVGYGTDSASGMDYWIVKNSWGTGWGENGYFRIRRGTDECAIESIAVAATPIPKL
cathepsin S (R&D #1183-CY-010), sequence (P25774 17-331 limits assumed): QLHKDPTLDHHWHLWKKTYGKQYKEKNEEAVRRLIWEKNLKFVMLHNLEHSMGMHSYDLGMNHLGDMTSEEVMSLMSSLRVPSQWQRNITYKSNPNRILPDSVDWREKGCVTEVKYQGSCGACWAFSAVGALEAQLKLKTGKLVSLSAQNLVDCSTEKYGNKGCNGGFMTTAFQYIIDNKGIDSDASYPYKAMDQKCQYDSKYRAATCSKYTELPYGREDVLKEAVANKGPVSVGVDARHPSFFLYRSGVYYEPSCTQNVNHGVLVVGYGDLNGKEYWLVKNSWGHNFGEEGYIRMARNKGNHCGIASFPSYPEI
cathepsin L (R&D #952-CY-010), sequence (P07711 114-333): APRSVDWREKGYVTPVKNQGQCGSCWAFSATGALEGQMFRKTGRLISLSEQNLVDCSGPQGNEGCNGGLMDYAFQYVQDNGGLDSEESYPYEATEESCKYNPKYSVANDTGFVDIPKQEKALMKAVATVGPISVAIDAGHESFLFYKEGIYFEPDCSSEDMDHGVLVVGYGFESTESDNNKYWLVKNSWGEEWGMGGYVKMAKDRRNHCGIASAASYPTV
T2 sequence (P07711 114-333): as above
cathepsin X, sequence (Q9UBR2 24-303 limits assumed): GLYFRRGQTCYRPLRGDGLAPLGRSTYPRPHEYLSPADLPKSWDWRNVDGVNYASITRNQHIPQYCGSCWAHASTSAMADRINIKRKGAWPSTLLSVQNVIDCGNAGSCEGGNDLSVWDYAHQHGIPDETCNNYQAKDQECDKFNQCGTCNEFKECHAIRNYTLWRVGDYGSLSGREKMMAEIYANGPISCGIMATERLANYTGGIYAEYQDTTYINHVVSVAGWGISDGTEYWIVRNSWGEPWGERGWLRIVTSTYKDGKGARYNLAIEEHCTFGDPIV

Z-Arg-Lys-AOMK (peptide)
IC50 of inhibition of cathepsin B activity (Z-Phe-Arg-AMC substrate, no pre-incubation), pH 4.6 [1]: 1.5 µM
IC50 of inhibition of cathepsin B activity (Z-Phe-Arg-AMC substrate, no pre-incubation), pH 7.2 [1]: 20 nM
IC50 of inhibition of cathepsin B activity, pH 6.8 (data not shown) [1]: 22 nM
IC50 of inhibition of enzyme activity, pH 4.6 [1]: 1.5 µM
IC50 of inhibition of enzyme activity, pH 7.2 [1]: 20 nM
fold greater potency (IC50) for cathepsin B than for cathepsin C, pH 7.2 [1]: 43 fold
fold greater potency (IC50) for cathepsin B than for cathepsin S, pH 7.2 [1]: 110 fold
fold greater potency (IC50) for cathepsin B than for cathepsin V, pH 7.2 [1]: 22 fold
reduction of cathepsin B activity (Z-Phe-Arg-AMC substrate) by 64 nM inhibitor, pH 4.6 [1]: 5%
reduction of cathepsin B activity (Z-Phe-Arg-AMC substrate) by 64 nM inhibitor, pH 7.2 [1]: 93%
Kinact/KI [2]: 1800 M⁻¹ s⁻¹
fold greater potency (KI) at pH 7.2 compared to pH 4.6 [3]: 115 fold
Kinact/KI [4]: 110000 M⁻¹ s⁻¹

Cc1cc(=O)oc2cc(NC(=O)[C@H](CCCCN)NC(=O)[C@H](CCCNC(=N)N)NC(=O)OCc3ccccc3)ccc12 [Z-Arg-Lys-AMC] (Cbz-Arg-Lys-{AMC})
pH of maximal hydrolysis by cathepsin B (cathepsin B): 7.8
substrate activity for cathepsin L (cathepsin L; pH 7.2 (data not shown)): no activity
substrate activity for cathepsin V (cathepsin V; pH 7.2 (data not shown)): no activity

Cc1cc(=O)oc2cc(NC(=O)[C@H](CCCCN)NC(=O)[C@H](CCC(=O)O)NC(=O)OCc3ccccc3)ccc12 [Z-Glu-Lys-AMC] (Cbz-Glu-Lys-{AMC})
pH of maximal hydrolysis by cathepsin B (cathepsin B): 4.6
substrate activity for cathepsin L (cathepsin L; pH 4.6): no activity
substrate activity for cathepsin V (cathepsin V; pH 4.6): no activity

Z-Glu-Lys-AOMK (peptide)
IC50 of inhibition of cathepsin B activity (Z-Phe-Arg-AMC substrate, no pre-incubation), pH 4.6 [1]: 1.1 µM
IC50 of inhibition of cathepsin B activity (Z-Phe-Arg-AMC substrate, no pre-incubation), pH 7.2 [1]: 320 nM
IC50 of inhibition of enzyme activity, pH 4.6 [1]: 1.1 µM
IC50 of inhibition of enzyme activity, pH 7.2 [1]: 320 nM
fold greater potency (IC50) for cathepsin B than for cathepsin C, pH 7.2 [1]: 38 fold
Kinact/KI [2]: 2000 M⁻¹ s⁻¹
fold greater potency (KI) at pH 7.2 compared to pH 4.6 [3]: 3.5 fold
Kinact/KI [4]: 8200 M⁻¹ s⁻¹

Cc1cc(=O)oc2cc(NC(=O)C(CCCN=C(N)N)NC(=O)C(Cc3ccccc3)NC(=O)OCc3ccccc3)ccc12 (stereo not drawn) [Z-Phe-Arg-AMC] (Cbz-Phe-Arg-{AMC}; configuration not given here)
substrate activity for cathepsin L (cathepsin L; pH 4.6): cleaved
substrate activity for cathepsin V (cathepsin V; pH 4.6): cleaved

CCCNC(=O)[C@H]1O[C@@H]1C(=O)N[C@H](C(=O)N1CCC[C@H]1C(=O)OC)[C@@H](C)CC [CA-074Me, reference compound]
inhibition of cellular cathepsin B activity [5]: completely inhibited

Cbz-Glu-Lys-{AOMK} [Z-Glu-Lys-AOMK]
% inhibition of enzyme activity at 16,000 nM inhibitor, pH 4.6 [6]: 10%
IC50 of inhibition of enzyme activity (Z-Phe-Arg-AMC substrate), pH 4.6 [6]: > 16 µM
% inhibition of enzyme activity at 16,000 nM inhibitor, pH 4.6 [7]: 26%
% inhibition of enzyme activity at 16,000 nM inhibitor, pH 7.2 [7]: 30%
IC50 of inhibition of enzyme activity (Z-Phe-Arg-AMC substrate), pH 4.6 [7]: > 16 µM
IC50 of inhibition of enzyme activity (Z-Phe-Arg-AMC substrate), pH 7.2 [7]: > 16 µM
% inhibition of enzyme activity at 16,000 nM inhibitor, pH 7.2 [8]: 10%
IC50 of inhibition of enzyme activity (Z-Phe-Arg-AMC substrate), pH 4.6 [8]: 1.9 µM
IC50 of inhibition of enzyme activity (Z-Phe-Arg-AMC substrate), pH 7.2 [8]: > 16 µM
% inhibition of enzyme activity at 16,000 nM inhibitor, pH 4.6 [9]: 23%
IC50 of inhibition of enzyme activity (Z-Phe-Arg-AMC substrate), pH 4.6 [9]: > 16 µM
IC50 of inhibition of enzyme activity (Gly-Arg-AMC substrate), pH 4.6 [10]: 8.6 µM
IC50 of inhibition of enzyme activity (Gly-Arg-AMC substrate), pH 7.2 [10]: 12 µM

Cbz-Arg-Lys-{AOMK} [Z-Arg-Lys-AOMK]
% inhibition of enzyme activity at 16,000 nM inhibitor, pH 7.2 [6]: 31%
IC50 of inhibition of enzyme activity (Z-Phe-Arg-AMC substrate), pH 7.2 [6]: > 16 µM
% inhibition of enzyme activity at 16,000 nM inhibitor, pH 4.6 [7]: 13%
IC50 of inhibition of enzyme activity (Z-Phe-Arg-AMC substrate), pH 4.6 [7]: > 16 µM
IC50 of inhibition of enzyme activity (Z-Phe-Arg-AMC substrate), pH 7.2 [7]: 2.2 µM
% inhibition of enzyme activity at 16,000 nM inhibitor, pH 4.6 [8]: 63%
IC50 of inhibition of enzyme activity (Z-Phe-Arg-AMC substrate), pH 4.6 [8]: > 16 µM
IC50 of inhibition of enzyme activity (Z-Phe-Arg-AMC substrate), pH 7.2 [8]: 440 nM
% inhibition of enzyme activity at 16,000 nM inhibitor, pH 4.6 (cathepsin X): 21%
IC50 of inhibition of enzyme activity (MCA-Arg-Pro-Pro-Gly-Phe-Ser-Ala-Phe-Lys(Dnp)OH substrate), pH 4.6 (cathepsin X): > 16 µM
% inhibition of enzyme activity at 16,000 nM inhibitor, pH 4.6 [9]: 32%
IC50 of inhibition of enzyme activity (Z-Phe-Arg-AMC substrate), pH 4.6 [9]: > 16 µM
% inhibition of enzyme activity at 16,000 nM inhibitor, pH 7.2 [11]: 29%
IC50 of inhibition of enzyme activity (Arg-AMC substrate), pH 7.2 [11]: > 16 µM
% inhibition of enzyme activity at 16,000 nM inhibitor, pH 4.6 [10]: 6%
IC50 of inhibition of enzyme activity (Gly-Arg-AMC substrate), pH 4.6 [10]: > 16 µM
IC50 of inhibition of enzyme activity (Gly-Arg-AMC substrate), pH 7.2 [10]: 850 nM
